Target: PIP3-dependent Rac exchanger 1 (P-Rex1), residues 38 to 1659 (human) (UniProt Q8TCU6)
Sequence of UniProt Q8TCU6 (Q8TCU6 38-1659): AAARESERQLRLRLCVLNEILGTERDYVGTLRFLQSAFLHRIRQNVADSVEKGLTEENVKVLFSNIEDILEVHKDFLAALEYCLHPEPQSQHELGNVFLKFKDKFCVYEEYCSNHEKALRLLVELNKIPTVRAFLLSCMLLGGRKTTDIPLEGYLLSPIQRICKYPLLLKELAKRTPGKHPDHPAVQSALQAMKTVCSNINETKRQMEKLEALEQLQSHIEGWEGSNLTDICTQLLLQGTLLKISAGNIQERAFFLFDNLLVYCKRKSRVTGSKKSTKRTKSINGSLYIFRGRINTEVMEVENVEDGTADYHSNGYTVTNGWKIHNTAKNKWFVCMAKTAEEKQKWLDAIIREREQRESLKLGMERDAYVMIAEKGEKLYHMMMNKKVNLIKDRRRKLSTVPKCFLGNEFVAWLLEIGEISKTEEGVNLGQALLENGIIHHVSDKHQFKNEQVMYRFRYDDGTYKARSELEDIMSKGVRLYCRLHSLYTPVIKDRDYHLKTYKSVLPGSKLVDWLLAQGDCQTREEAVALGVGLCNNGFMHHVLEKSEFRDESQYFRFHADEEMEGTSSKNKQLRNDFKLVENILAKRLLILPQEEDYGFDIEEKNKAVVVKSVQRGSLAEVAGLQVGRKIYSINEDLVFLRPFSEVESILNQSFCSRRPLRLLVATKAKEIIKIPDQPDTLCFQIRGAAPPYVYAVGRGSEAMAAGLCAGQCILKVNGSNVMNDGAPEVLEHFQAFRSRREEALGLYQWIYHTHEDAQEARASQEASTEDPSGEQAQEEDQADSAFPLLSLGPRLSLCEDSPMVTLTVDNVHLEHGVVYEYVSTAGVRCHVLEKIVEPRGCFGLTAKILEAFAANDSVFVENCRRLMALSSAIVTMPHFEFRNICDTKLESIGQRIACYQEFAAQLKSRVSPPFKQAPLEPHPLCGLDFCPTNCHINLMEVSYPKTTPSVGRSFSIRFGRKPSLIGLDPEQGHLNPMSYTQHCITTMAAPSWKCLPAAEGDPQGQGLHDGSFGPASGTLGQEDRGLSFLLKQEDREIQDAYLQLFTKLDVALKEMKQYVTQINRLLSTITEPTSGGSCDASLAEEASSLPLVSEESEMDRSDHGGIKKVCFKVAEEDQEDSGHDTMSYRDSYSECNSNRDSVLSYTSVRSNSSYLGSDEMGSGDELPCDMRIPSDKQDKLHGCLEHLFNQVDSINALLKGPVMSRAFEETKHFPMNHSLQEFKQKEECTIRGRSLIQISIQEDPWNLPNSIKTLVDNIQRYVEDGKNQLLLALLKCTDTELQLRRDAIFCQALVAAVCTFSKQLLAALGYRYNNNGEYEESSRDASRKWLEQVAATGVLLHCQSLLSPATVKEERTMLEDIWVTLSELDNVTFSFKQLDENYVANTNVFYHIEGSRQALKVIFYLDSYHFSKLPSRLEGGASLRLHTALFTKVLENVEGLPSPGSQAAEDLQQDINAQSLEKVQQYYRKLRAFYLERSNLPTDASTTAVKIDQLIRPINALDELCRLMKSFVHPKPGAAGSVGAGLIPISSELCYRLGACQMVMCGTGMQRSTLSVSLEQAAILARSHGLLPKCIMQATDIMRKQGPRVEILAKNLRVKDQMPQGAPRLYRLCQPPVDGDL

Geranylgeranylated human Gβ1γ2 with Gβ W332A (from UniProt P62873 1-340; P59768 1-71) (complex)
liposome-based GEF assay, Gβγ dose-response (0.5 μM PIP3): EC50 of activation of P-Rex1 against WT Gβγ; lower efficacy than WT: 10 fold
